3 molecules from patent publication US20070231899A1 (published 2007) can be followed below.

For experiment [1], the target named is plasmin (Homo sapiens (Human)) (UniProt P00747). The experiment is described as follows: surface plasmon resonance, phospholipid-associated annexin A2; phospholipid-associated annexin A2 with plasmin.
The target in experiment [2] is tissue-type plasminogen activator (t-PA) (UniProt P00750). The experiment is described as follows: surface plasmon resonance, phospholipid-associated AIIt; AIIt with t-PA. (In general: In SPR one partner is held on a chip, and binding of the other changes the refractive index at the surface.)
Experiment [3] concerns the target plasmin (Homo sapiens (Human)) (UniProt P00747). Put plainly: surface plasmon resonance, phospholipid-associated AIIt; AIIt with plasmin.
The target in experiment [4] is [Glu]-plasminogen (human) (UniProt P00747). The experiment is described as follows: surface plasmon resonance, phospholipid-associated AIIt; AIIt with plasminogen.
The target in experiment [5] is T1, Annexin II heterotetramer (AIIt) purified from bovine lung (bovine, UniProt P04272 2-339; P60902 2-97).
T1 construct: also called annexin II tetramer
Put plainly: iodinated A61 (0.008-5 µM) on AIIt bound to phospholipid-coated wells, gamma counting. From the text: Binding of A₆₁ to AIIt—The purified A₆₁ was iodinated according to manufacturer's procedures. Iodinated A₆₁ retained biological activity as determined by the endothelial cell proliferation assay (Kassam et al., 2001). 96-well Immulon-1 Removawell strips (Dynex Technologies) were coated with phospholipid mixture containing 3:1 ratio of phosphatidylserine to phosphatidylcholine and air-dried. The coated strips were blocked with 1% fatty acid-free bovine serum albumin (BSA) in a buffer containing 20 mM Hepes (pH 7.4), 140 mM NaCl, and 2 mM CaCl₂ (buffer A) at room temperature for 2 h. The strips were washed with buffer A and incubated with 1 μM AIIt in buffer A at room temperature for 4 h. The strips were then washed and incubated with 0.008-5 μM iodinated A₆₁ with or without 30-fold molar excess of cold A₆₁ or BSA at 4° C. After overnight incubation, the strips were washed five times with PBS, and individual wells were detached and measured for radioactivity with a γ-counter. The data shown (n=6) are the average of two separate experiments.

By Kd is commonly meant the constant that tells how readily two partners part at equilibrium. Low values mean tighter binding, high ones weaker binding.

Chain of tissue-type plasminogen activator (t-PA) (P00750 36-562 limits assumed): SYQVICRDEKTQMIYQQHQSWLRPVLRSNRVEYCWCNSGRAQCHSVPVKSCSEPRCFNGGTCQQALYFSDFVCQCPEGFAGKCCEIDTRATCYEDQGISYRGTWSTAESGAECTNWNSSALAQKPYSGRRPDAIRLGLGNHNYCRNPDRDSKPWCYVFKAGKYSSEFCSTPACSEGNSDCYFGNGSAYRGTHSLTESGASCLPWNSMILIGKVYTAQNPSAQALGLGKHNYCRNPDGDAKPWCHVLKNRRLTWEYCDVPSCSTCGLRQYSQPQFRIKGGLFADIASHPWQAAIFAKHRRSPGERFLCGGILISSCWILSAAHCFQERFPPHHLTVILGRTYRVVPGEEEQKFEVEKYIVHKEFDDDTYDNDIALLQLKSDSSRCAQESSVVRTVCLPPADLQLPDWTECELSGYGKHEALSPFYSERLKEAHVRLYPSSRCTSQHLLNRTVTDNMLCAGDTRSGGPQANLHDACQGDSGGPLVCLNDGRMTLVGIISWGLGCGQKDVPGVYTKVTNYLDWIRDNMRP
T1 sequence (P04272 2-339 limits assumed, chain 1 of 2): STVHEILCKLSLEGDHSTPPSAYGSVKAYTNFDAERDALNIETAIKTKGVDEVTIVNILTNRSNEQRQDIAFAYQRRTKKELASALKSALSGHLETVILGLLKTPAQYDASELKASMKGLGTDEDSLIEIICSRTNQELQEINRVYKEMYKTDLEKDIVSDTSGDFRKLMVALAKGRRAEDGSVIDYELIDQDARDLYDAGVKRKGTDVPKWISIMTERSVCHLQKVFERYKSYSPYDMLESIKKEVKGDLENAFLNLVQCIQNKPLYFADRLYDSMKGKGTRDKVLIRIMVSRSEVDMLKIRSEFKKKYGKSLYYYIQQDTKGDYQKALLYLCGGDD
T1 sequence (P60902 2-97 limits assumed, chain 2 of 2): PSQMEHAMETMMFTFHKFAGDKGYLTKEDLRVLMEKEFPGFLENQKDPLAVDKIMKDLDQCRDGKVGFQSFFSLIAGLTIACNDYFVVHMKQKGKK
Chain of [Glu]-plasminogen (human) (P00747 20-810 limits assumed): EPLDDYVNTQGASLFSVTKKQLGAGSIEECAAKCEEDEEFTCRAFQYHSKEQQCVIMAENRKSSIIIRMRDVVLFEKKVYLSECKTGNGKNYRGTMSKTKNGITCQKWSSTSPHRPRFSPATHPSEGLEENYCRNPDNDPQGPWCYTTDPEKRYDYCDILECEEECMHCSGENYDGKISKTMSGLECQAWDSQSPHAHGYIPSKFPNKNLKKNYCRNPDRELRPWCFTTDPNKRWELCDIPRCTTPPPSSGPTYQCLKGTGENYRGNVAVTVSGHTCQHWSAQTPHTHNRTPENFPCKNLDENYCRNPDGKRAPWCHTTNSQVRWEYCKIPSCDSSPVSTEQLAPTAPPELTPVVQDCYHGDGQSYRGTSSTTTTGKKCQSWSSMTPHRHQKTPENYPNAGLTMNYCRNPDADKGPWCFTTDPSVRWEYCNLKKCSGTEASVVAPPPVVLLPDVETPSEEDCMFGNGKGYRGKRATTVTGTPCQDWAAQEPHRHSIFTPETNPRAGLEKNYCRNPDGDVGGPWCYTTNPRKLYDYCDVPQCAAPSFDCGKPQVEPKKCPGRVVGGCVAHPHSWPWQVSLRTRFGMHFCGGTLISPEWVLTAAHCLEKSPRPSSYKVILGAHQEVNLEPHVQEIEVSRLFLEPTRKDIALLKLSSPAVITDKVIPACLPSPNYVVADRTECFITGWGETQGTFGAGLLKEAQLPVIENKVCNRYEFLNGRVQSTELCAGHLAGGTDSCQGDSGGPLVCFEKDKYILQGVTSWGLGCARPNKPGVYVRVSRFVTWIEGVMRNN

For the molecule “Annexin A2 (p36), phospholipid-associated (from UniProt P07355 2-339)”, the Kd in experiment [1] was found to be 780 nM.

In the case of “Annexin II heterotetramer (AIIt), phospholipid-associated, as used in the surface plasmon resonance study of Example 12 (from UniProt P07355 2-339)”, the values for the equilibrium dissociation constant (Kd) in experiment [2], in experiment [3] and in experiment [4] were 680 nM, 750 nM and 110 nM, respectively.

B1: A61 antiangiogenic plasminogen fragment (Lys78-Lys468 of plasminogen) (other)
chain: KVYLSECKTGNGKNYRGTMSKTKNGITCQKWSSTSPHRPRFSPATHPSEGLEENYCRNPDNDPQGPWCYTTDPEKRYDYCDILECEEECMHCSGENYDGKISKTMSGLECQAWDSQSPHAHGYIPSKFPNKNLKKNYCRNPDRELRPWCFTTDPNKRWELCDIPRCTTPPPSSGPTYQCLKGTGENYRGNVAVTVSGHTCQHWSAQTPHTHNRTPENFPCKNLDENYCRNPDGKRAPWCHTTNSQVRWEYCKIPSCDSSPVSTEQLAPTAPPELTPVVQDCYHGDGQSYRGTSSTTTTGKKCQSWSSMTPHRHQKTPENYPNAGLTMNYCRNPDADKGPWCFTTDPSVRWEYCNLKKCSGTEASVVAPPPVVLLPDVETPSEEDCMFGNGK
modifications: radioiodinated (iodinated with Iodobeads) in the binding assay
notes: also called AAPF; anti-angiogenesis plasmin fragment
B1: in experiment [5], the Kd stood at 1000 nM. This counts as single-digit micromolar.
